Experiments:
[1] = molecular target: T1, rhNav1.7α+β1-β2-β3 (rhesus monkey α subunit with human β …); test: binding FACS, CHO FlpIn cells
T1 construct: P2A cleaves it into α, β1, β2, β3; also called rhNav1.7-beta1-beta2-beta3
Procedure: (§1) Binding of the ISVDs to cell-expressed Nav1.7α was detected via murine anti-Flag (Sigma, catalog #F1804). Briefly, cells were resuspended in FACS buffer (PBS, 10% FBS, NaN₃) and transferred to a 96-well V-bottom plate at 1×10^5 cells/well. Purified FLAG3-tagged ISVD was diluted in FACS buffer and added to the cells for 30 minutes at 4° C. […] Prior to the read-out, the samples were resuspended in 1 μg/mL propidium iodide (Sigma, catalog #P4170) to exclude dead cells. Between each step, the cells were centrifuged for 5 minutes at 200 grams and washed with 100 μL/well FACS buffer.
(§2) Crude periplasmic extracts containing ISVDs from phage display selections (as described above) were screened in FACS for binding to huNav1.7α but not to huNav1.5a. […] As used in Table 8, the drawings, and throughout the description, Navβ1, Navβ2, and Navβ3 are human homologs unless specifically identified otherwise.

[2] = molecular target: T2, huNav1.7α+β1-β2-β3 (human, UniProt Q15858 1-1988; Q07699 19-218; O60939 30-215; Q9NY72 23-215); test: binding FACS, CHO FlpIn cells
T2 construct: 5N11S variant; also called huNav1.7-beta1-beta2-beta3; huNav1.7α+Navβ1-Navβ2-Navβ3
Procedure: as §1, §2

[3] = molecular target: T3, huNav1.5α+β1-β2-β3 (human, UniProt Q14524 1-2016; A5A6L6 19-218; O60939 30-215; Q2KI11 23-215); test: binding FACS, HEK FlpIn cells
T3 construct: in the cell P2A cleaves it into α, β1, β2, β3; also called huNav1.5-beta1-beta2-beta3
Procedure: as §1, §2

[4] = molecular target: T4, huNav157chimera14+β1-β2-β3 (human, UniProt Q07699 19-218; O60939 30-215; Q9NY72 23-215); test: binding FACS, HEK FlpIn cells
T4 construct: HEK FlpIn line; also called huNav157 chimera 14-beta1-beta2-beta3; Nav157ch14-β1-β2-β3
Procedure: as §1, §2

[5] = molecular target: T2, huNav1.7α+β1-β2-β3; test: binding FACS, HEK FlpIn cells
Procedure: as §1, §2

[6] = molecular target: T5, huNav1.7(N146S, V194I, F276V, R277Q, E281V, V331M, E504D, D507E, S508N, N533S)-β1-β2-β3 (human, UniProt Q15858 1-1988; Q07699 19-218; O60939 30-215; Q9NY72 23-215); test: FACS on transiently transfected HEK293T cells
T5 construct: Transiently on HEK293T cells; The text prints V1941 for V194I; also called chimeric variant of huNav1.7α with all DI huNav1.7α-rhNav1.7α polymorphisms
Procedure: as §1
FACS binding studies (as described above) were performed on HEK293T cells transiently transfected with a chimeric variant of huNav1.7α in which all the huNav1.7α-rhNav1.7α polymorphisms of DI are present (N146S, V1941, F276V, R277Q, E281V, V331M, E504D, D507E, S508N, N533S). Replacing the huNav1.7α DI sequence for that of rhNav1.7α is sufficient to abolish the binding of F0103262CO2, F0103265B04, F0103262B06, and F0103265A11 to huNav1.7α, recapitulating the absence of binding on rhNav1.7α (see FIGS. 21A-21B).

[7] = molecular target: T6, huNav1.7α+β1 (human, UniProt Q15858 1-1988; Q07699 19-218); test: binding FACS, HEK293 cells
T6 construct: also called huNav1.7-beta1; HEKa/β1
Procedure: as §1, §2

[8] = molecular target: T7, huNav1.6α (human, UniProt Q9UQD0 1-1980); test: binding FACS on stable huNav1.x paralog HEK293T cell lines
T7 construct: also called huNav1.6 (alpha subunit)

[9] = molecular target: huNav1.1α (human, UniProt P35498 1-2009); test: as above
[10] = molecular target: T8, huNav1.4α (human, UniProt P35499 1-1836); test: as above
T8 construct: also called huNav1.4 (alpha subunit)

[11] = molecular target: T9, huNav1.3α (human, UniProt Q9NY46 1-2000); test: as above
T9 construct: also called huNav1.3 (alpha subunit)

[12] = molecular target: T10, huNav1.2α (human, UniProt Q99250 1-2005); test: as above
T10 construct: also called huNav1.2 (alpha subunit)

[13] = molecular target: T11, huNav1.5α (human, UniProt Q14524 1-2016); test: as above
T11 construct: also called huNav1.5 (alpha subunit)

[14] = molecular target: T12, huNav1.8α (human, UniProt Q9Y5Y9 1-1956); test: as above
T12 construct: also called huNav1.8 (alpha subunit)

[15] = molecular target: T13, huNav1.5-β1-β2-β3 (human); test: FACS, CHO Flp-In, competitor 1 µM F010300703
T13 construct: Whole entry; CHO Flp-In or HEK Flp-In cells; also called huNav1.5-beta1-beta2-beta3

[16] = molecular target: T14, rhNav1.7α + β1-β2-β3 (rhesus monkey); test: FACS, CHO Flp-In, competitor 1 µM F010300703
T14 construct: also called rhNav1.7-beta1-beta2-beta3; rhNav1.7-β1-β2-β3

[17] = molecular target: T13, huNav1.5-β1-β2-β3; test: FACS, CHO Flp-In, competitor 1 µM IRR00092
[18] = molecular target: T14, rhNav1.7α + β1-β2-β3; test: FACS, CHO Flp-In, competitor 1 µM IRR00092
[19] = molecular target: T15, huNav1.7α + β1-β2-β3 (human, UniProt Q15858 1-1988; A5A6L6 19-218; O60939 30-215; Q2KI11 23-215); test: FACS, CHO Flp-In, competitor 1 µM IRR00092
T15 construct: also called huNav1.7-beta1-beta2-beta3; huNav1.7-β1-β2-β3

[20] = molecular target: T13, huNav1.5-β1-β2-β3; test: binding FACS, HEK Flp-In
[21] = molecular target: T16, huNav157chim14 (human); test: binding FACS, HEK Flp-In
T16 construct: HEK Flp-In cells; also called huNav157 chimera 14

[22] = molecular target: T17, huNav157chim14-β1-β2-β3 (human); test: binding FACS, HEK Flp-In
T17 construct: Whole entry; HEK Flp-In cells; also called huNav157 chimera 14-beta1-beta2-beta3

[23] = molecular target: T13, huNav1.5-β1-β2-β3; test: binding FACS, CHO Flp-In, periplasmic extract
[24] = molecular target: T15, huNav1.7α + β1-β2-β3; test: binding FACS, CHO Flp-In, periplasmic extract
[25] = molecular target: T4, huNav157chimera14+β1-β2-β3; test: binding FACS with purified FLAG3-HIS6 tagged ISVDs
Procedure: as §1, §2

T12 sequence (Q9Y5Y9 whole entry): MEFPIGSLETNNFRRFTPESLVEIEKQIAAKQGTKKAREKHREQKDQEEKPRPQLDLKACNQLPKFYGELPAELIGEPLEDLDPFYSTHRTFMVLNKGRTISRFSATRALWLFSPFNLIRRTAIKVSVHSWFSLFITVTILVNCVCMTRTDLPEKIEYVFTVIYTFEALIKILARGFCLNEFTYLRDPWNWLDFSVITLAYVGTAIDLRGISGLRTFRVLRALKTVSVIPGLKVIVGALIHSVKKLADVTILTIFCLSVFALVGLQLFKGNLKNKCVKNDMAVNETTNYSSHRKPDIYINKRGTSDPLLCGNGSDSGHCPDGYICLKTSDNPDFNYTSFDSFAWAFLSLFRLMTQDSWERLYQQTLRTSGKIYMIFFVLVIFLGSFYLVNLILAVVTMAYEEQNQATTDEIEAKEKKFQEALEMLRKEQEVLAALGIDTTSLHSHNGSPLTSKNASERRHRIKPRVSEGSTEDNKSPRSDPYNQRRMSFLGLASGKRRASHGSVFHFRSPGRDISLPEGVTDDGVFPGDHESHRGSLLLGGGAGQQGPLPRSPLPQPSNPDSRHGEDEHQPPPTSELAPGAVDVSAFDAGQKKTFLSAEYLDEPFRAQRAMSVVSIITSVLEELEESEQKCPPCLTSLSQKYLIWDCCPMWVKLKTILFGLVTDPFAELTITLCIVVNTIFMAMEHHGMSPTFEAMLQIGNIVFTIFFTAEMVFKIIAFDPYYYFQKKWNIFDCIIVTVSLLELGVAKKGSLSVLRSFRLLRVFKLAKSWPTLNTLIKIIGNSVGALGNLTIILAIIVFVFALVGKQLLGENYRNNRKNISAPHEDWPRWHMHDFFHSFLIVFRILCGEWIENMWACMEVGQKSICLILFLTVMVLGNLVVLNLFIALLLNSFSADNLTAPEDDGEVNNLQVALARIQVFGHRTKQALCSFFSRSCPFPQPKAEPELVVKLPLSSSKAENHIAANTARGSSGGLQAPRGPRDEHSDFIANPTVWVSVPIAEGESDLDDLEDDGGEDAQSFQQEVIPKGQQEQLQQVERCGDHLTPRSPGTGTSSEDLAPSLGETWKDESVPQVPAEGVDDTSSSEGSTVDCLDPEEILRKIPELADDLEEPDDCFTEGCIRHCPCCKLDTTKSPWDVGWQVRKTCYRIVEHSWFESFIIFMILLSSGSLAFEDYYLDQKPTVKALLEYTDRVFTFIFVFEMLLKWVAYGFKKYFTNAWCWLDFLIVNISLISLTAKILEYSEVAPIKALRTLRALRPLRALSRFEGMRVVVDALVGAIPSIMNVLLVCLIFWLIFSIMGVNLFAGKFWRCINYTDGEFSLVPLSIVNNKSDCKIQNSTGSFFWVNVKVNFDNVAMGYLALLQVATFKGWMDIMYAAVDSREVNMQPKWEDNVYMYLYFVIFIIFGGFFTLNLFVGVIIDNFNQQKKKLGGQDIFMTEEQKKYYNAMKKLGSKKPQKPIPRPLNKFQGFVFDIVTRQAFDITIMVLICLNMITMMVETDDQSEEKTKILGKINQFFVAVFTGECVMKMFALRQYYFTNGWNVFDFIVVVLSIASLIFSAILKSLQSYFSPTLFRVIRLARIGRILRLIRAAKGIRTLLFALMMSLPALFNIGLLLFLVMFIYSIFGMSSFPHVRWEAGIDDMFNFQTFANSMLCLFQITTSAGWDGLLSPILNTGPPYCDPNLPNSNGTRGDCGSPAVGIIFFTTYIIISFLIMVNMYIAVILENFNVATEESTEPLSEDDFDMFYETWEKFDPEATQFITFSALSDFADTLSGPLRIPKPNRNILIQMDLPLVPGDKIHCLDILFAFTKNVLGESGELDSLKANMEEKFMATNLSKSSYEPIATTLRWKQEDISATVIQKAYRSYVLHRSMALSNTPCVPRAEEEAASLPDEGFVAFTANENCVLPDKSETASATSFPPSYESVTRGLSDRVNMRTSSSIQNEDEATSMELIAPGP
T10 sequence (Q99250 whole entry): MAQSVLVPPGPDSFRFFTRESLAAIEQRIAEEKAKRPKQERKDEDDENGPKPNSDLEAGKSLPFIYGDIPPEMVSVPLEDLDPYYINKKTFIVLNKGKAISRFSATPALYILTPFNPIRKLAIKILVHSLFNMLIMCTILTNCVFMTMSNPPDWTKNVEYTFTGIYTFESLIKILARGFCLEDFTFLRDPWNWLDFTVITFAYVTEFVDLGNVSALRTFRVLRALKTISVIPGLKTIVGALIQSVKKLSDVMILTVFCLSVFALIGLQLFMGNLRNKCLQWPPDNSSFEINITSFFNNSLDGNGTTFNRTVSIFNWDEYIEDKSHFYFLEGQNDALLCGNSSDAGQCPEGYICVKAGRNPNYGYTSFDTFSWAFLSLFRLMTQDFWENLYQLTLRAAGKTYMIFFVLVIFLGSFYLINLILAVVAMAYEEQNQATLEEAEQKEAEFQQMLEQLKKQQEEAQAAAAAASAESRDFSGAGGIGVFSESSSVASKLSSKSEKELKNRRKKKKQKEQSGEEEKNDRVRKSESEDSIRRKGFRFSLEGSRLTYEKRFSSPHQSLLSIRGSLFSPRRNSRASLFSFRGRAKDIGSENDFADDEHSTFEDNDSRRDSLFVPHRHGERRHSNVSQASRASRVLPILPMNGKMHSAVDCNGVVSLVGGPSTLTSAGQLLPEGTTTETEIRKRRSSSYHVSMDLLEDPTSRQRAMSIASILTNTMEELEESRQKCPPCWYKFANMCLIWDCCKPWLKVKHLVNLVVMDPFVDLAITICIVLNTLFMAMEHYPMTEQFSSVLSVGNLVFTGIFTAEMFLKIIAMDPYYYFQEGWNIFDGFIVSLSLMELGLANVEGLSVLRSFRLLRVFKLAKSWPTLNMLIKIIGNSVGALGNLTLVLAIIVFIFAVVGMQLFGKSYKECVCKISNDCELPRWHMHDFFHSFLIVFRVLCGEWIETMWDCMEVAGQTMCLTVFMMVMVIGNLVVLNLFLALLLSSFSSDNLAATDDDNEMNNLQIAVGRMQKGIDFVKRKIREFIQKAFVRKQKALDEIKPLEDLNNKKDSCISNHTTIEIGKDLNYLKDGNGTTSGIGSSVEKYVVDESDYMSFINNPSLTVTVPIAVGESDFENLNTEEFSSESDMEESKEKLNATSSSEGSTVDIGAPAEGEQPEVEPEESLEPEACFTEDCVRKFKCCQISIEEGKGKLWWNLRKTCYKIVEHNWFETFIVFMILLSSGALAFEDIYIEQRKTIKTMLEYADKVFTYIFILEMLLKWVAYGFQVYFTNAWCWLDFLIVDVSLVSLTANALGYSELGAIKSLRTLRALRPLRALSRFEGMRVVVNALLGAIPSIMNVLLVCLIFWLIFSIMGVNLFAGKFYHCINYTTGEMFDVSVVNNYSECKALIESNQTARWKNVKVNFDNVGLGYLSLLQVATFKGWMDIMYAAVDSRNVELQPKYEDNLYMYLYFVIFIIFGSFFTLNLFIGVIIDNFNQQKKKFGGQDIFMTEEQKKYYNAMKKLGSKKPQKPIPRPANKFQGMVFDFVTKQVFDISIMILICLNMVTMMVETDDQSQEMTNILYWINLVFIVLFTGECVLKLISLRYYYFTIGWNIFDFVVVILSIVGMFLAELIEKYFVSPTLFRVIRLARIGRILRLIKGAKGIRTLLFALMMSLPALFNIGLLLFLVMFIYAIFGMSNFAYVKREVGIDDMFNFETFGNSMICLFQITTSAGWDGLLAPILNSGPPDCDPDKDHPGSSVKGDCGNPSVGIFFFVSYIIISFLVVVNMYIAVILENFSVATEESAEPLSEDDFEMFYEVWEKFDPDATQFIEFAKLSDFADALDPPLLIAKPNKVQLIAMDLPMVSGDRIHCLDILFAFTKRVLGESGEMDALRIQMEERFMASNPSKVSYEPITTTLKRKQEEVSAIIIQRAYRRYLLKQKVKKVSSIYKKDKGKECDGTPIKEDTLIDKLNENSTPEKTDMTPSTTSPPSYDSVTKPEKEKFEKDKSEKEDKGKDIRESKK

| EC50 [2] [nM] | EC50 [7] [nM] | binding result [8] | binding result [9] | binding result [10] | binding result [11] | binding result [12] | binding result [14] | MFI [16] [MFI] | MFI [18] [MFI] | MFI [19] [MFI] | MFI [21] [MFI] | MFI [22] [MFI] | MFI [24] [MFI] | Binder | binding result [3] | binding result [13] | MFI [15] [MFI] | MFI [17] [MFI] | MFI [20] [MFI] | MFI [23] [MFI] | further results |
| --- | --- | --- | --- | --- | --- | --- | --- | --- | --- | --- | --- | --- | --- | --- | --- | --- | --- | --- | --- | --- | --- |
| 5.4 | 5.5 | no binding | no binding | no binding | no binding | no binding | no binding | – | – | – | – | – | – | F0103265B04 (parental)-FLAG-HIS6 (VHH) VHH: EVQLVESGGGLVQPGGSLRLSCAAPSFIFSNNYMEWYRQAPGKQRDWVARITGRGNTNYLDSVKGRFTISRDDAKNTVYLEIDSLKPEDTAVYYCSALWYGGRAWGKGTLVTVSS | no binding | no binding | – | – | – | – | binding result [1]: no binding; EC50 [4]: 8.5 nM; EC50 [5]: 8.1 nM; binding result [6]: no binding (tested: 1 µM) |
| – | – | – | – | – | – | – | – | 21500 | 96900 | 33700 | 47300 | 87200 | 22400 | F0103PMP500E03 (bispecific antibody, crude periplasmic extract; also called F103275B05(N93R)-50GS-F0103500E03 bivalent ISVD) EVQLVESGGGLVQPGGSLRLSCAASGSIFNINSMAWYRRAPGKQRELVASSTNGGSTNYADSVKGRFTISRDNAKRVYLQMNSLTPEDTAVYYCRALLQPSIYDISRTYWGQGTLVTVSSGGGGSGGGGSGGGGSGGGGSGGGGSGGGGSGGGGSGGGGSGGGGSGGGGSEVQLVESGGGLVQAGGSLRLSCAASGRTFSRYQMGWFRQAPGKEREFVAYISWSGSTRYVDSVKGRFTISRDNAKNTVYLQMNSLKPEDTAVYHCAAGTAGIISSRPETYDSWGQGTQVTVSSAAADYKDHDGDYKDHDIDYKDDDDKGAAHHHHHHKAA | – | – | 852 | 975 | 1110 | 521 | – |
| – | – | – | – | – | – | – | – | 6280 | 90400 | 93300 | 45100 | 128000 | 35600 | F0103PMP495F09 (bispecific antibody, crude periplasmic extract; also called F103275B05(N93R)-50GS-F0103495F09 bivalent ISVD) EVQLVESGGGLVQPGGSLRLSCAASGSIFNINSMAWYRRAPGKQRELVASSTNGGSTNYADSVKGRFTISRDNAKRVYLQMNSLTPEDTAVYYCRALLQPSIYDISRTYWGQGTLVTVSSGGGGSGGGGSGGGGSGGGGSGGGGSGGGGSGGGGSGGGGSGGGGSGGGGSEVQLVESGGGLVQAGSSLSLSCAASGRALSTYAMGWFRQAPGKEREFVARISRSGITTYYTDSVKGRFTISRDRAKDTVYLQMNSLKPEDTAIYLCAADASTNPAGYYLRNRYDYWGQGTLVTVSSAAADYKDHDGDYKDHDIDYKDDDDKGAAHHHHHHKAAGGGGG | – | – | 645 | 930 | 976 | 483 | – |
| – | – | – | – | – | – | – | – | 22500 | 108000 | 95400 | 78400 | 136000 | 106000 | F0103PMP505D08 (bispecific antibody, crude periplasmic extract; also called F103275B05(N93R)-50GS-F0103505D08 bivalent ISVD) EVQLVESGGGLVQPGGSLRLSCAASGSIFNINSMAWYRRAPGKQRELVASSTNGGSTNYADSVKGRFTISRDNAKRVYLQMNSLTPEDTAVYYCRALLQPSIYDISRTYWGQGTLVTVSSGGGGSGGGGSGGGGSGGGGSGGGGSGGGGSGGGGSGGGGSGGGGSGGGGSEVQLVESGGGLVQAGGSLRLSCVTSGRTSDLSTMNWFRQAPGKEREFVARITRRGSTYYAESVKERFIISRDNAKNTVYLQMNSLKPEDTANYYCTAASEMGYHYRGQGTQVTVSSAAADYKDHDGDYKDHDIDYKDDDDKGAAHHHHHHKAAGGGGG | – | – | 845 | 964 | 1200 | 891 | – |
| 4.1 | 4.1 | no binding | no binding | no binding | no binding | no binding | no binding | – | – | – | – | – | – | F0103464B09 (parental)-FLAG-HIS6 (VHH, also called F103464B09) VHH: EVQLVESGGGLVQPGGSLRLSCATTSRAFIRDVFTGWYRRVPGKERELVARIYNGGNTNYADFAKGRFSISRDNAKKMVTLRMSNLKPEDTGVYYCLFSGTINTGREYRSGDYWGQGTLVTVSS | no binding | no binding | – | – | – | – | EC50 [1]: 27 nM; binding result [25]: binds |
| 320 | 180 | no binding | no binding | no binding | no binding | no binding | no binding | – | – | – | – | – | – | F0103262C02 (parental)-FLAG-HIS6 (VHH, also called F0103262CO2; F103262CO2) VHH: EVQLVESGGGLVQAGGSLTLSCAASGLPFGLYILGWIRRAPGKERDFVAAISRSGRDTVYANSVKGRFTISRDNAKNMVYLRMDNLRPEDTAAYYCAVDSVPRGTPTITESEYAIWGQGTLVTVSS | no binding | no binding | – | – | – | – | binding result [1]: no binding; EC50 [4]: 470 nM; EC50 [5]: 380 nM; binding result [6]: no binding (tested: 1 µM) |

Source: US20240002497A1 (Merck Sharp & Dohme, published 2024)
